This is an account of results in article PMC10647171.

What all share (test): potentiometry
Series [1] has as its target Asp29 (UniProt position 771, ASTTGDCH---). Particulars: 298 K; 0.1 M NaClO4; none (4 mM HClO4, 0.1 M NaClO4); free peptide, no metal, thiols reduced (argon atmosphere).
Series [2] deals with Cterm31 (UniProt position 773, TTGDCH-----). The note with it: 298 K; 0.1 M NaClO4; none (4 mM HClO4, 0.1 M NaClO4); free peptide, no metal, thiols reduced (argon atmosphere).
For series [3], the target named is Cys30 (UniProt position 772, STTGDCH----). The note with it: 298 K; 0.1 M NaClO4; none (4 mM HClO4, 0.1 M NaClO4); Zn(II)-bound mononuclear 1:1 complex.
Series [4] addresses His31 (UniProt position 773, TTGDCH-----). Particulars: 298 K, 0.1 M NaClO4, none (4 mM HClO4, 0.1 M NaClO4).
Series [5] addresses Cterm31 (position 31, TTGDCH-----). Particulars: 298 K; 0.1 M NaClO4; none (4 mM HClO4, 0.1 M NaClO4); free peptide, no metal, thiols reduced (argon atmosphere).
The target in series [6] is Cys30 (position 30, STTGDCH----). Particulars: 298 K; 0.1 M NaClO4; none (4 mM HClO4, 0.1 M NaClO4); Zn(II)-bound mononuclear 1:1 complex.
In series [7] the target is Glu10 (position 10, …). The note with it: 298 K, 0.1 M NaClO4, none (4 mM HClO4, 0.1 M NaClO4).
The target in series [8] is His31 (position 31, TTGDCH-----). The note with it: 298 K, 0.1 M NaClO4, none (4 mM HClO4, 0.1 M NaClO4).
[9] abbreviates: Fe(II)-bound mononuclear 1:1 complex, anaerobic.
Where [10] appears, read: Mn(II)-bound mononuclear 1:1 complex.
The mark [11] stands for this setting: Zn(II)-bound mononuclear 1:1 complex.
[12] abbreviates: free peptide, no metal, thiols reduced (argon atmosphere).

On to CCAASTTGDCH [FeoB C-terminal peptide P1 (Ac-CCAASTTGDCH, FeoB 763-773) (Escherichia coli K12)], for which the pKa (usually the pH at which an ionisable group is half protonated) came out at 4.19 in series [1]; 3.37 in series [2]; 7.27 in series [3]; 4.68 in series [4] (setting [9]); 6.46 in series [4] (setting [10]); 5.91 in series [4] (setting [11]). This protein also had a pKa in series [4] (setting [12]) of 6.96.
Turning to RRARSRVDIELLATRKSVSSCCAASTTGDCH [FeoB C-terminal peptide P2 (Ac-RRARSRVDIELLATRKSVSSCCAASTTGDCH, FeoB 743-773) (Escherichia coli K12)], the pKa in series [5] came out at 2.15; in series [6], 7.75; in series [7] (setting [9]), 4.13; in series [7] (setting [10]) it was 3.64; in series [7] (setting [12]), 4.38; in series [8] (setting [9]) it was 4.90. Moreover, the results for the pKa in series [8] (setting [10]), in series [8] (setting [11]) and in series [8] (setting [12]) were 5.20, 5.74 and 6.73, respectively.
